“And” between values parts separate entries of the source, which are not always exact repeats. Equal values may be shown once.
Key:
[1] = biological target: His-tagged kelch BTB domain (his:BTB) (Drosophila); assay: dynamic light scattering
[2] = biological target: His-tagged kelch BTB domain (his:BTB) (Drosophila); assay: SEC
[3] = biological target: His-tagged kelch BTBIVR (his:BTBIVR) (Drosophila); assay: SEC

Row | stoichiometry N [1] | stoichiometry N [2] | stoichiometry N [3] | Substance
1 | 2 | 2 and 4 | – | His-tagged kelch BTB domain (his:BTB) (domain or fragment)
2 | – | – | 2 | His-tagged kelch BTBIVR (his:BTBIVR) (domain or fragment)

— article PMC2138045
